Assay results taken from article PMC10593741.
Each block holds one substance with its values, some of them ahead of it.

Key:
[1] = test system: Histone octamer H2A(K120C)-AF488/H2B/H3/H4 (Saccharomyces cerevisiae); assay: single-molecule fluorescence of reconstituted nucleosomes; details: 100 mM KOAc, 0.02% NP40, 5% glycerol, 1 mM DTT, 5 mM ATP or ATPgS, 30 C, single-molecule buffer not …
[2] = test system: ORC-JF646 (Origin Recognition Complex, HaloTag-JF646 on N-terminus of Orc3) (Saccharomyces cerevisiae); assay: single-molecule fluorescence with optical tweezers; details: Bulk loading: 25 mM HEPES-KOH pH 7.6, 10 mM MgOAc, 100 mM KOAc, 0.02% NP40, 5% glycerol, 1 mM DTT, 5 mM ATP or ATPgS, 30 C, single-molecule buffer not …; for binding signal (% of foci in origin bin): 5 nM ORC, 5 s rapid binding, 30 min; for binding signal (% of DNA molecules with ORC): Cdc6, ATP, 30 min stable binding
[3] = biological target: H3-H4 tetramer of S. cerevisiae (on DNA: H3-H4 tetrasome) (S. cerevisiae) (UniProt P61830); assay: single-molecule photobleaching step counting, fit of a probability model; H2A^AF488 foci at the chromatinized ARS1 origin, imaged immediately after introduction into the flow cell; p_label fixed at 0.81
[4] = biological target: H3-H4 tetramer of S. cerevisiae (on DNA: H3-H4 tetrasome) (S. cerevisiae) (UniProt P61830); assay: single-molecule photobleaching step counting, fit of a probability model; H2A^AF488 foci, chromatinized ARS1 origin, after 30 min bulk incubation with ORC, Cdc6 and MCM^JF646/Cdt1
[5] = biological target: H3-H4 tetramer of S. cerevisiae (on DNA: H3-H4 tetrasome) (S. cerevisiae) (UniProt P61830); assay: single-molecule photobleaching step counting, fit of a probability model; H2A^AF488 foci, chromatinized ARS1 origin, after 30 min bulk incubation in buffer only
[6] = biological target: H3-H4 tetramer of S. cerevisiae (on DNA: H3-H4 tetrasome) (S. cerevisiae) (UniProt P61830); assay: single-molecule photobleaching step counting, fit of a probability model; H2A^AF488 foci, chromatinized ARS1 origin, after 30 min bulk incubation with ORC^JF646 and Cdc6
[7] = biological target: H3-H4 tetramer of S. cerevisiae (on DNA: H3-H4 tetrasome) (S. cerevisiae) (UniProt P61830); assay: single-molecule photobleaching step counting, fit of a probability model; H2A^AF488 foci, chromatinized mutated origin, after 30 min bulk incubation with ORC, Cdc6 and MCM^JF646/Cdt1
[8] = biological target: H3-H4 tetramer of S. cerevisiae (on DNA: H3-H4 tetrasome) (S. cerevisiae) (UniProt P61830); assay: single-molecule photobleaching step counting, fit of a probability model; H2A^AF488 foci, chromatinized mutated origin, after 30 min bulk incubation with ORC^JF646 and Cdc6

Substance: 10.4 kbp DNA, ARS1 origin, bare
binding signal (% of H2A foci in origin bin) ([1]; after 30 min with ORC-JF646 and Cdc6, Bulk loading: 25 mM HEPES-KOH pH 7.6, 10 mM MgOAc): 49
binding signal (% of H2A foci in origin bin) ([1]; salt-gradient dialysis, after 30 min in buffer, chromatinized form is N2, Bulk loading: 25 mM HEPES-KOH pH 7.6, 10 mM MgOAc): 80
binding signal (% of foci in origin bin) [2]: 30
binding signal (% of DNA molecules with ORC) ([2]; 61% of foci in origin bin): 79

Substance: 10.4 kbp DNA, ARS1 origin, chromatinized (two nucleosomes)
binding signal (% of foci in origin bin) ([2]; nucleosomes): 39
binding signal (% of DNA molecules with ORC) ([2]; nucleosomes, 51% of foci in origin bin): 41

ph2a (probability of H2A-H2B dimer association with the H3-H4 tetrasome) [3]: 0.77
ph2a (probability of H2A-H2B dimer association with the H3-H4 tetrasome) [4]: 0.84
ph2a (probability of H2A-H2B dimer association with the H3-H4 tetrasome) [5]: 0.73
ph2a (probability of H2A-H2B dimer association with the H3-H4 tetrasome) [6]: 0.81
ph2a (probability of H2A-H2B dimer association with the H3-H4 tetrasome) [7]: 0.91
ph2a (probability of H2A-H2B dimer association with the H3-H4 tetrasome) [8]: 0.6
Substance: H2A^AF488-H2B dimer (S. cerevisiae H2A K120C labelled with AF488, with H2B) (from UniProt P04911 2-132; P02293 5-131) (complex)
